Experimental data published in US20260132208A1 (DOMAIN THERAPEUTICS, published 2026).
Changes are numbered by the printed parent chain. Where “and” joins values, the source holds several entries; their conditions need not be identical. Equal entries are not always repeated.

B1: anti-CCR8 mAb 1-7 (antibody, V domains shown)
VH: QVHLVETGGGLVRPGNSLKLSCVTSGFTLSNYRMHWLRQPPGKRLEWIAVIKVKSDNYGANYAESVKGRFTISRDDAKSSVYLQMNRLREEDTATYYCSRPDGFSPFVYWGQGTLVTVSA
VL: DIKMTQSPSSMYASLGERVTITCKASQDINSYLSWFQQKPGKSPKTLIYRANRLVDGVPSRFSGSGSGQDYFLTISSLEYEDMGIYYCLQYGEFPPTFGAGTKLELK
notes: Murine hybridoma mAb
B2: anti-CCR8 mAb 1-8 (antibody, V domains shown)
VH: EVQLVESGGGLVQPKGSLRLSCAASGFTFNAYAMNWVRQAPGKGLEWVARIRSKSNNYATYYGDSVKDRFTISRDDSQTMLYLQMNNLKTEDTAMYYCVRGREAYYRYDGDYYAMDYWGQGTSVTVSS
VL: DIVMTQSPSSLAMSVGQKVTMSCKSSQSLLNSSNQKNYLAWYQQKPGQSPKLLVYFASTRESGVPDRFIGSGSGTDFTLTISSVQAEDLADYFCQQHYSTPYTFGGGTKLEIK
notes: Murine hybridoma mAb
B3: anti-CCR8 mAb 1-12 (antibody, V domains shown)
VH: EVQLVETGGGLVQPKGSLKLSCAASGFTFNANAMNWVRQAPGKGLEWVARIRSKSNNYATYYADSVKDRFTISRDDSQSMLYLQMNNLKTEDTAMYYCVRGSDNYIFYAMDYWGQGTSVTVSS
VL: DIVMTQAAPSVPVTPGESVSISCRSSKSLLHSNGNTYLYWFLQRPGQSPQLLIYRMSNLASGVPDRFSGSGSGTAFTLRISRVEAEDVGVYYCMQHLEYPFTFGGGTKLEIK
notes: Murine hybridoma mAb
B4: anti-CCR8 mAb 1-13 (antibody, V domains shown)
VH: B3 VH with A31T, N57Y, S102R, D103E, N104M, Y105G, I106N, F107Y, A109S
VL: B3 VL with G105S
notes: Murine hybridoma mAb
B5: Ref #2 (antibody, human IgG1, V domains shown)
VH: QVQLVQSGAEVKKPGASVKVSCKASGYTFTSYYMHWVRQAPGQGLEWMGIINPSGGSTSYAQKFQGRVTMTRDTSTSTVYMELSSLRSEDTAVYYCARAVRNRFRFDYWGQGTLVTVSS
VL: QSALTQPASVSGSPGQSITISCTGTSSDVGSYNLVSWYQQHPGKAPKLMIYEVSKRPSGVSNRFSGSKSGNTASLTISGLQAEDEADYYCSSYAGSSTFVVFGGGTKLTVL
B6: anti-CCR8 mAb 1-14 (antibody, V domains shown)
VH: QVQLVETGGGLVRPGNSLKLSCVTSGFTFSNYRMHWLRQPPGKRLEWIAVIKVKSDNYGANYAESVKGRFTISRDDSKSSVYLQVNRLREEDTATYYCSSPTYPGSSGFAYWGQGTLVTVSA
VL: DIQMTQTTSSLSASLGDRVTISCRASQDISNYLNWYQQKPDGTVKLLIYYTSRLHSGVPSRFSGSGSGTDYSLTISNLEQEDIATYFCQQGNKFPPTFGGGTKLEIN
notes: Murine hybridoma mAb

Legend:
[1] = molecular target: T1, human CCR8 (human, UniProt P51685 1-355); test: cell-based or functional assay
[2] = molecular target: T1, human CCR8; test: cell-based or functional assay; remark: listed apart in the source
[3] = molecular target: T1, human CCR8; test: cell-based or functional assay; remark: listed apart in the source
[4] = molecular target: T1, human CCR8; test: cell-based or functional assay; remark: listed apart in the source
[5] = molecular target: T2, pm3 (Y17 sulfated; Y15 and Y16 not sulfated); test: ELISA on coated peptide [cont.]
T2 construct: also called sulfated CCR8 N-terminal peptide pm3
Description: (§1) The specific binding properties of antibodies were evaluated by ELISA with coated CCR8 related peptides (500 ng/ml) in carbonate/bicarbonate buffer. Different peptides were used as described in Table 1 (see Example 1). Each anti-CCR8 mAb was tested at 1 μg/mL then diluted at 1/10. After an incubation at room temperature during 90 min, unbound mAbs were removed by washings. […] After washings, 3,3′,5,5′-tetramethylbenzidine (TMB) (Interchim, Montluçon, France) was added for 15 min. Then the optical density (OD) was determined by using a multiplate reader (Tecan, Lyon, France) and correlated with mAb reactivity on the panel of coated peptides.

[6] = molecular target: T3, pm5 (Y15 and Y17 sulfated; Y16 not sulfated); test: ELISA on coated peptide [cont.]
T3 construct: also called sulfated CCR8 N-terminal peptide pm5
Description: as §1

[7] = molecular target: T4, pm6 (Y16 and Y17 sulfated; Y15 not sulfated); test: ELISA on coated peptide [cont.]
T4 construct: also called sulfated CCR8 N-terminal peptide pm6
Description: as §1

[8] = molecular target: T5, pm8 (Y15, Y16 and Y17 sulfated); test: ELISA on coated peptide [cont.]
T5 construct: also called sulfated CCR8 N-terminal peptide pm8
Description: as §1

[9] = molecular target: T1, human CCR8; test: flow cytometry, hCCR8-transfected CHO-K1 cells
Description: Briefly, 1.10⁵ cells per well in a 96 well plate were incubated with a dilution of unconjugated anti-CCR8 mAb at 10 μg/mL then diluted at 1/3.33, 4 dilution points (during 30 min at 4° C.). In human activated T cells model, prior to mAb incubation, cells were first incubated with 200 nM of hCCL1 (R&D Systems, Minneapolis, MN, USA) or buffer PBS (Invitrogen by Thermofisher Scientific, Illkirch-Graffenstaden, France) supplemented by 2% Fetal Bovine Serum (Invitrogen by Thermofisher Scientific, Illkirch-Graffenstaden, France) and 2 mM EDTA (Invitrogen by Thermofisher Scientific, Illkirch-Graffenstaden, France) during 1 hour at 4° C. To determine EC50 value, 8 concentrations of anti-CCR8 mAb were tested. Unbound antibodies were washed away with PBS (Invitrogen by Thermofisher Scientific, Illkirch-Graffenstaden, France) supplemented by 2% Fetal Bovine Serum (Invitrogen by Thermofisher Scientific, Illkirch-Graffenstaden, France) and 2 mM EDTA (Invitrogen by Thermofisher Scientific, Illkirch-Graffenstaden, France). Subsequently, cells are centrifuged (5 min at 400 g) and bound antibody is detected with F(ab′)2-Goat anti-Mouse IgG (H+L) Cross-Adsorbed Secondary Antibody, Alexa Fluor 488 (dilution 1/500) (Invitrogen by Thermofisher Scientific, Illkirch-Graffenstaden, France) or with F(ab′)₂-Goat anti-Human IgG Fc Secondary Antibody, PE (Invitrogen by Thermofisher Scientific, Illkirch-Graffenstaden, France) (dilution 1/1000) at 4° C. for 30 min. Detection reagent is washed away and cells are centrifuged (5 min at 400 g) and resuspended in 30 μL PBS. Bound detection antibody is quantified on a MacsQuant16 (Miltenyi, Gladbach, Germany) (B1 or B2 channel, 5000 events per acquisition). During the experiment, the respective isotype mAb controls (mouse IgG1, mouse IgG2a, mouse IgG2b, mouse IgG3 or human IgG1) (Biolegend, Amsterdam, The Netherlands) are included to exclude any unspecific binding events. EC50 values were determined via nonlinear fit “log (agonist) vs.response—Variable slope (four parameters)” function of Graphpad prism. EC50 values were not constantly determined in the same experiments.

[10] = molecular target: T1, human CCR8; test: flow cytometry, inhibition of hCCL1-AF647 (10 nM) binding to hCCR8-CHO cells
Description: The hCCR8 transfected CHO cell line was dispatched at a density of 1.105 per well in a 96-well plate. Cells were incubated for 30 min at 4° C. with or without anti-CCR8 mAb tested at 10 μg/mL then diluted at 1/3. Unbound antibodies were washed away with PBS (Gibco, Villebon-sur-yvette, France) supplemented by 2% Fetal Bovine Serum (Invitrogen by Thermofisher Scientific, Illkirch-Graffenstaden, France) and 2 mM EDTA. […] After washing unbound ligands, CCL1 bound detection is quantified on a MacsQuant16 (Miltenyi, Gladbach, Germany) (R1 channel, 5 000 events per acquisition).
For IC₅₀ determination, a concentration response curve is performed using 8 concentrations of mAb. Curves are fitted and IC₅₀ of CCL1 binding blocking activity is calculated using the sigmoidal dose-response (variable slope) model on GraphPad Prism 9 (GraphPad Software, San Diego, CA, USA).

[11] = molecular target: human CCR8 with a SNAP-tag at the N-terminus (human, UniProt P51685 1-355, SNAP-tag labelled covalently with Lumi4-Terbium); test: cell-based or functional assay

T5 sequence (peptide, as listed by the source): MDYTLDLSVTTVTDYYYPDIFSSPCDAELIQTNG
T3 sequence (peptide, as listed by the source): as above
T4 sequence (peptide, as listed by the source): as above
T2 sequence (peptide, as listed by the source): as above

Binder | IC50 of CCL1-induced hCCR8 Gi2 signaling (BRET, HEK-293) [1] | residual hCCL1 (100 nM) Gi2 response, protocol #2, mAb 0.08 µg/mL [2] | residual hCCL1 (100 nM) Gi2 response, protocol #2, mAb 0.4 µg/mL [2] | residual hCCL1 (100 nM) Gi2 response, protocol #2, mAb 10 µg/mL [2] | residual hCCL1 (100 nM) Gi2 response, protocol #3, mAb 0.05 µg/mL [2] | residual hCCL1 (100 nM) Gi2 response, protocol #3, mAb 0.5 µg/mL [2] | residual hCCL1 (100 nM) Gi2 response, protocol #3, mAb 5 µg/mL [2] | extrapolated top plateau of hCCL1 curve with 5 µg/mL mAb, protocol #3 [3] | IC50 of CCL1-induced hCCR8 Gi2 signaling (BRET), pH 6.5 [4] | IC50 of CCL1-induced hCCR8 Gi2 signaling (BRET), pH 7.4 [4] | binding result [5] | binding result [6] | binding result [7] | binding result [8] | % positive cells [9] | MFI fold change to isotype ctrl [9] | IC50 [10] | % hCCR8 internalization with CCL1 300 nM, mAb 1 µg/ml (HTRF) [11] | % hCCR8 internalization with CCL1 300 nM, mAb 10 µg/ml (HTRF) [11]
B1 | 0.018 µg/mL and 0.117 nM | 73% | 51% | 24% | 69% | 38% | 30% | 526000 % of hCCL1 (100 nM) | 0.011 µg/ml and 0.073 nM | 0.007 µg/ml and 0.047 nM | binds | binds | binds | binds | 71.3% | 6.26 fold | 0.89 µg/mL and 5.7 nM |  | 
B2 | 0.031 µg/mL and 0.209 nM | 70% | 44% | 51% | 78% | 55% | 43% | 511000 % of hCCL1 (100 nM) | 0.053 µg/ml and 0.355 nM | 0.063 µg/ml and 0.421 nM | binds | binds | binds | binds | 68.5% | 5.12 fold | 2.55 µg/mL and 17.1 nM |  | 
B3 | 0.015 µg/mL and 0.099 nM | 99% | 85% | 68% | 86% | 75% | 48% | 805000 % of hCCL1 (100 nM) | 0.031 µg/ml and 0.208 nM | 0.017 µg/ml and 0.115 nM | binds | binds | binds | binds | 67.8% | 6.11 fold | 0.85 µg/mL and 5.72 nM |  | 
B4 | 0.01 µg/mL and 0.067 nM | 60% | 35% | 21% | 69% | 39% | 38% | 149 % of hCCL1 (100 nM) | 0.019 µg/ml and 0.125 nM | 0.011 µg/ml and 0.075 nM | binds | binds | binds | binds | 64.7% | 5.63 fold | 0.36 µg/mL and 2.42 nM |  | 
B5 |  |  |  |  |  |  |  |  |  |  |  |  |  |  |  |  |  | 100% | 90%
B6 | 0.01 µg/mL and 0.066 nM | 93% | 89% | 48% | 92% | 68% | 50% | 305000 % of hCCL1 (100 nM) | 0.014 µg/ml and 0.095 nM | 0.004 µg/ml and 0.026 nM | binds | binds | binds | binds | 83% | 17.6 fold | 0.28 µg/mL and 1.85 nM |  | 
